Results: patent publication US20220363757A1 (SYMPHOGEN A S, published 2022)

Tests used:
Experiment in all cases: SPR, Fab over captured mutant LAG-3-Fc;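 note: fc fusion variants captured on anti-human IgG Fc sensor, Fab injected with association then dissociation phases, KD obtained from Langmuir one-to-one fit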
[1] = target: T1, human LAG-3 domain 1-2 Fc fusion, point mutation #2 Q41A (human, UniProt P18627 23-266)
T1 construct: not shown: human IgG1 Fc, AA P101-K330
T1 sequence: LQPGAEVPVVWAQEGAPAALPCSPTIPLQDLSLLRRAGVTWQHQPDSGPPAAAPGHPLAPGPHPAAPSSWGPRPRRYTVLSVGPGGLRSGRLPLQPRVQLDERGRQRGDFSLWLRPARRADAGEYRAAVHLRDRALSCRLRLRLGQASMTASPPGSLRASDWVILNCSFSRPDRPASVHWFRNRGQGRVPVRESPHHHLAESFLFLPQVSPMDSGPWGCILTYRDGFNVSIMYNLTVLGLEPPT

[2] = target: T2, human LAG-3 domain 1-2 Fc fusion, point mutation #59 Q117A (human, UniProt P18627 23-266)
T2 construct: not shown: human IgG1 Fc, AA P101-K330
T2 sequence: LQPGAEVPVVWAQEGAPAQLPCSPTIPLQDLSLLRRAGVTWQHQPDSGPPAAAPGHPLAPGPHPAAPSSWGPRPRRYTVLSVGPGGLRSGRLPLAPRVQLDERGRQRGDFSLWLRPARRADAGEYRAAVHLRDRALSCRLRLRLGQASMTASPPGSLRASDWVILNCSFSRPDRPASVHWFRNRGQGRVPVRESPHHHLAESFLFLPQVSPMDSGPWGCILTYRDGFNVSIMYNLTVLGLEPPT

[3] = target: T3, human LAG-3 domain 1-2 Fc fusion, point mutation #69 R129A (human, UniProt P18627 23-266)
T3 construct: not shown: human IgG1 Fc, AA P101-K330
T3 sequence: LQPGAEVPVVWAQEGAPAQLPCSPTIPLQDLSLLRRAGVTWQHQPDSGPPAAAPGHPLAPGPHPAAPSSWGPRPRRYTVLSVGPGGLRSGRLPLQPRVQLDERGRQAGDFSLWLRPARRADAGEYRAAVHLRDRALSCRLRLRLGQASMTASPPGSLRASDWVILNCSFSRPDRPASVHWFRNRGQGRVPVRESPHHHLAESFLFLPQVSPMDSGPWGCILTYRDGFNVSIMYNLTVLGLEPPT

[4] = target: T4, human LAG-3 domain 1-2 Fc fusion, point mutation #10 S54A (human, UniProt P18627 23-266)
T4 construct: not shown: human IgG1 Fc, AA P101-K330
T4 sequence: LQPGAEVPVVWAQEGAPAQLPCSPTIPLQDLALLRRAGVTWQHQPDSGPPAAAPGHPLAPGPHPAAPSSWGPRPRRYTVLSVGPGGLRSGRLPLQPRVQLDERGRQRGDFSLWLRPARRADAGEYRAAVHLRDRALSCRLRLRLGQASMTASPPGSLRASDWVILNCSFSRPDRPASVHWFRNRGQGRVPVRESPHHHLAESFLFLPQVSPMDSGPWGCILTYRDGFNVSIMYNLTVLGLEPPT

[5] = target: T5, human LAG-3 domain 1-2 Fc fusion, point mutation #61 R119A (human, UniProt P18627 23-266)
T5 construct: not shown: human IgG1 Fc, AA P101-K330
T5 sequence: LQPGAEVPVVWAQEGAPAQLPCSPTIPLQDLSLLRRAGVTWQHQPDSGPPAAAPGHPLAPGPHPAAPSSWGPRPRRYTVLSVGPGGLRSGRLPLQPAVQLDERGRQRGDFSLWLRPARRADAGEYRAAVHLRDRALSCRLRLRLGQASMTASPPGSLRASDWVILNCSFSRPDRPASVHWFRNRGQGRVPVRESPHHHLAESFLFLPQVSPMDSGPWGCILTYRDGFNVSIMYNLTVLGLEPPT

[6] = target: T6, human LAG-3 domain 1-2 Fc fusion, point mutation #63 D123A (human, UniProt P18627 23-266)
T6 construct: not shown: human IgG1 Fc, AA P101-K330
T6 sequence: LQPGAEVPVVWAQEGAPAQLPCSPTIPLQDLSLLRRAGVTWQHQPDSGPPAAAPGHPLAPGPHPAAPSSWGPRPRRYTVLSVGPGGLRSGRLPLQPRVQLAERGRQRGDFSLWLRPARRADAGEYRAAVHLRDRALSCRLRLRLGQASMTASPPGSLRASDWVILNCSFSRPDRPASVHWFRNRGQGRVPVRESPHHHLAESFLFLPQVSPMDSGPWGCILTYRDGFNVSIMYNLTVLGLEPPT

[7] = target: T7, human LAG-3 domain 1-2 Fc fusion, point mutation #42 R95A (human, UniProt P18627 23-266)
T7 construct: not shown: human IgG1 Fc, AA P101-K330
T7 sequence: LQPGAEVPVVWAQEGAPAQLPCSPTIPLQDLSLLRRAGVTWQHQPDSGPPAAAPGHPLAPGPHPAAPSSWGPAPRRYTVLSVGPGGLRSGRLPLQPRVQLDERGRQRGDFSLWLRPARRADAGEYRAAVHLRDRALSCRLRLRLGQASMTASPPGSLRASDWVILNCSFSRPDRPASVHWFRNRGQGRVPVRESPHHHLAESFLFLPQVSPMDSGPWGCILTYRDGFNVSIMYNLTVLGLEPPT

[8] = target: T8, human LAG-3 domain 1-2 Fc fusion, point mutation #34 A87S (human, UniProt P18627 23-266)
T8 construct: not shown: human IgG1 Fc, AA P101-K330
T8 sequence: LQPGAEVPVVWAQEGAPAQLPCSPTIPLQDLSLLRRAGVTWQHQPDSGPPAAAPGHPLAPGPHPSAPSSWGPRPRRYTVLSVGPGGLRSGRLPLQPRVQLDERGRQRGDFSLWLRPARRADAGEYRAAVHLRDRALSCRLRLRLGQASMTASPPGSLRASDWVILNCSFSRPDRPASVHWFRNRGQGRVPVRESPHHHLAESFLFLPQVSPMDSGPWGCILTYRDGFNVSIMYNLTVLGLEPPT

[9] = target: T9, human LAG-3 domain 1-2 Fc fusion, point mutation #35 A88S (human, UniProt P18627 23-266)
T9 construct: not shown: human IgG1 Fc, AA P101-K330
T9 sequence: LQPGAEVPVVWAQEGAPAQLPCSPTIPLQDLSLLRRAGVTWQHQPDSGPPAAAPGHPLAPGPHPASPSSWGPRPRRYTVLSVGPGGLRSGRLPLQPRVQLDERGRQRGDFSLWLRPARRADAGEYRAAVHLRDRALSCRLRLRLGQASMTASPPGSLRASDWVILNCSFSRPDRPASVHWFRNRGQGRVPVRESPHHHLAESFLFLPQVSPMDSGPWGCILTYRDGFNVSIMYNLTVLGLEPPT

B1: Fab fragment of antibody 15532 (Fab, V domains shown, not shown: a dimerising Fc or GST)
VH: QVQLQQWGAGLLRPSETLSLTCAVYGESFSGYYWNWIRQPPGKGLEWIGEINHSGSTNYNPSLKSRVTISVDTSKTQFSLKLSSVTAADTAVYYCARGWDLLDWNDYWNEYWGQGTLVTVSS
VL: EIVLTQSPATLSLSPGERATLSCRASQSVSSYLAWYQQKPGQAPRLLIYDASNRATGIPARFSGSGSGTDFTLTISSLEPEDFAVYYCQQRSNWPLTFGGGTKVEIKR
notes: monomeric Fab made by GingisKHAN digestion of the IgG1
[1]
  KD mutant/KD wild type: 3.4 fold
[2]
  KD mutant/KD wild type: 0.8 fold
[3]
  KD mutant/KD wild type: 3 fold
[4]
  KD mutant/KD wild type: 0.7 fold
[5]
  KD mutant/KD wild type: 3.2 fold
[6]
  KD mutant/KD wild type: 1 fold
[7]
  KD mutant/KD wild type: 3.7 fold
[8]
  binding result: no binding (tested: 300 nM)
[9]
  KD mutant/KD wild type: 3.7 fold

B2: Fab fragment of antibody 15431 (Fab, V domains shown, not shown: a dimerising Fc or GST)
VH: QVQLQQSGPGLVKPSQTLSLTCAISGDSVSSNSAAWNWIRQSPSRGLEWLGRTYYRSKWYNDYAVSVKSRITINPDTSKNQFSLQLNSVTPEDTAVYYCARDDDWNDFDYWGQGTLVTVSS
VL: EIVLTQSPATLSLSPGERATLSCRASQSVSSYLAWYQQKPGQAPRLLIYDASNRATGIPARFSGSGSGTDFTLTISSLEPEDFAVYYCQQRSNWPLTFGGGTKVEIKR
notes: as for B1
[1]
  binding result: no binding (tested: 300 nM)
[2]
  KD mutant/KD wild type: 0.4 fold
[3]
  binding result: no binding (tested: 300 nM)
[4]
  KD mutant/KD wild type: 0.5 fold
[5]
  binding result: no binding (tested: 300 nM)
[6]
  KD mutant/KD wild type: 0.9 fold
[7]
  KD mutant/KD wild type: 1.9 fold
[8]
  KD mutant/KD wild type: 1 fold
[9]
  KD mutant/KD wild type: 0.6 fold

B3: Fab fragment of antibody 15572 (Fab, V domains shown, not shown: a dimerising Fc or GST)
VH: QLQLQESGPGLVKPSETLSLTCTVSGDSISSSSYYWGWIRQPPGKGLEWIGSIFYSGNTYYNPSLKSRVTISVDTSKNQFSLKLSSVTAADTAVYYCAREDDFLTDYYGAFDIWGQGTMVTVSS
VL: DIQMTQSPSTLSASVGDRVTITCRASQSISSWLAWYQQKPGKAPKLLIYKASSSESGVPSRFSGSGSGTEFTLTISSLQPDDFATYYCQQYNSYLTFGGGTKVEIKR
notes: as for B1
[1]
  binding result: no binding (tested: 300 nM)
[2]
  KD mutant/KD wild type: 0.5 fold
[3]
  binding result: no binding (tested: 300 nM)
[4]
  KD mutant/KD wild type: 0.7 fold
[5]
  binding result: no binding (tested: 300 nM)
[6]
  KD mutant/KD wild type: 0.5 fold
[7]
  KD mutant/KD wild type: 0.6 fold
[8]
  KD mutant/KD wild type: 0.9 fold
[9]
  KD mutant/KD wild type: 0.6 fold

B4: Fab fragment of antibody 15011 (Fab, V domains shown, not shown: a dimerising Fc or GST)
VH: EVQLLESGGGLVQPGGSLRLSCAASGFDFRSYAMMWVRQAPGKGLEWVGGINGEVGGSNTYYAPAVKGRATISRDNSKNTLYLQMNSLRAEDTAVYYCVKGAGACGICNDDIDAWGQGTLVTVSS
VL: SYELTQDPAVSVALGQTVRITCSGAGSYAGSYYYGWHQQKPGQAPVTVIYDNDKRPSNIPDRFSGSSSGNTASLTITGAQAEDEADYYCGSTNDNDDGGLFGSGTKVTVLG
notes: as for B1
[1]
  KD mutant/KD wild type: 0.7 fold
[2]
  KD mutant/KD wild type: 0.7 fold
[3]
  KD mutant/KD wild type: 0.7 fold
[4]
  KD mutant/KD wild type: 0.8 fold
[5]
  KD mutant/KD wild type: 0.6 fold
[6]
  KD mutant/KD wild type: 0.8 fold
[7]
  KD mutant/KD wild type: 0.7 fold
[8]
  KD mutant/KD wild type: 1 fold
[9]
  KD mutant/KD wild type: 0.9 fold
